Here are results for 2 molecules from patent publication US20230192839A1, “ANTIBODIES HAVING CONDITIONAL AFFINITY AND METHODS OF USE THEREOF” (PFIZER INC., priority 2017, published 2023).

One experiment concerns MV4-11 cells. The experiment is described as follows: Sequential rounds of in vitro cytotoxicity assays with changing MTX concentration (reversible inhibition). In kind it is cell-based, human. The following applies: Round 0-1 no MTX, then 100 µM MTX at Round 1-2 and Round 2-3; FIGS. 9A and 9B. The method, then:
The anti-CD33 clones tested in this example were: P03_A01, P07_C04, and P02_D09. In addition, a tool T cell was prepared as described in Example 4, as were untransduced T cells. Also, each of the different conditional CAR T cells described above was generated in triplicate from PBMC cells from three different human donors. The target cell line used in this assay was MV4-11; these cells were transduced to stably express GFP and firefly luciferase, as described in Example 5.
This experiment involved a series of in vitro cytotoxicity assays, in which co-cultures of T cells and MV4-11 target cells were incubated together for multiple rounds of sequential cytotoxicity assays, in which the MTX concentration changed at different rounds of the assays. In vitro cytotoxicity assays were carried out in 24-well plates by co-culturing 200,000 T cells with 200,000 MV4-11 cells, for each different T cells described above. In addition, each of the co-cultures contained either 100 µM MTX or 0 µM MTX at different times, as indicated by the schematics in FIGS. 9A and 9C. In both conditions, 1 mM leucovorin was supplemented to circumvent MTX toxicity. For each round of the assay, co-cultures were maintained in a final volume of 500 µl of RPMI 1640 medium at 37 C with 5% CO2 for 48 hours. At the end of each round, cells were spun down (250 × g, 10 minutes), supernatant was removed, and fresh media containing fresh MV4-11 cells, leucovorin, and optionally MTX were added according to the schematics shown in FIGS. 9A and 9C. Target cell killing was assessed and plotted as described in Example 4.
In comparing the different panels of FIGS. 9A-9D, note that the schematics shown in FIGS. 9A and 9C indicate the MTX concentration in the co-culture at the start of the assay for a given round, whereas the results from that assay are shown the next round number in FIGS. 9B and 9D, respectively. […]

For a further experiment, the system named is human CD33. Kind of experiment: Biacore SPR binding kinetics of anti-CD33 scFv-Fc clones with or without 10 µM MTX. To be noted: CD33, 37° C., pH 7.4, scFv-Fc. The text has this: The first 4 rounds of panning used biotinylated CD33 antigen captured on streptavidin or neutravidin coated 96-well plates. […] 1536 clones were randomly chosen from the 4th and 5th round of panning against the CD33 antigen and their binding specificity determined by phage ELISA. Clones that specifically bound to CD33 were sequenced and all unique clones were subjected to a phage competition ELISA to assess their relative affinities to CD33 and sensitivity to MTX by measuring their binding strengths in the presence or absence of 10 µM (micromolar) MTX (i.e. in 0 or 10 µM MTX).
All binding kinetics analysis was performed on label-free Biacore surface plasmon biosensors (Biacore T200™ from GE Life Sciences) at 37° C. in 10 mM Hepes pH 7.4, 150 mM NaCl, 0.05% Tween-20 (HBST+), with or without 10 µM MTX. The Biacore data were processed in Biacore T200 Evaluation Software, and the data were double-referenced (Myszka, 1999, J Mol Recognit 12(5):279-284) and fit globally to a simple Langmuir with mass transport model to determine the equilibrium dissociation constant, KD, from the ratio of the kinetic rate constants (KD = koff/kon). In some cases the binding of antigen was very low (or not detectable) in the presence of 10 µM MTX and as a result kinetic rate constants could not be accurately determined. In these cases, a KD (or KD limit) was estimated based on the binding response at the highest analyte concentration tested or based on the typical limit of detection for a Biacore T200.
A general note: Surface plasmon resonance follows binding to a sensor surface in real time, without labels.

B1: P07_C04: anti-CD33 clone with conditional affinity; VH SEQ ID NO: 25, VL SEQ ID NO: 26; also as scFv in CAR (antibody, V domains shown)
VH: QVQLVESGGGLVQAGGSLRLSCAASRRSSRSWAMHWVRQAPGKGLEWVAVISYDGRLKYYADSVKGRFTISRDNAEYLVYLQMNSLRAEDTAVYYCAAEPDGEGTNGGLDIWGQGTLVTVSS
VL: DIQMTQSPSSLSASVGDRVTITCRASQNISRYLNWYQQKPGKAPKLLIYSASSLQTGVPSRFSGSGSGTDFTLTISSLQPEDFATYYCQQSYSSGAFGQGTKVEIK
modifications: Synthetic Antibody
notes: also as scFv in CAR
As to B1, the “target cell killing when MTX is added to active CAR T cells ("on" to "off")” value in the experiment with MV4-11 cells is reported as “quick inhibition rates”. For the same molecule, in the experiment on human CD33, the “koff, kinetics toward antigen with 0 µM MTX” value came out at 0.0029 s⁻¹ and the “kon, kinetics toward antigen with 0 µM MTX” value stood at 95000 M⁻¹ s⁻¹. Also, in the experiment on human CD33 (10 µM MTX), the “koff, kinetics toward antigen with 10 µM MTX” value is 0.025 s⁻¹ and the “kon, kinetics toward antigen with 10 µM MTX” value was 170000 M⁻¹ s⁻¹.

B2: P03_A01: anti-CD33 clone with conditional affinity; VH SEQ ID NO: 19, VL SEQ ID NO: 20; also as scFv in CAR (antibody, V domains shown)
VH: QVQLVESGGGLVQAGGSLRLSCAASRRSSRSWAMHWVRQAPGKGLEWVAVISYDGRLKYYADSVKGRFTISRDNAEYLVYLQMNSLRAEDTAVYYCAAETGSVGLDYWGQGTLVTVSS
VL: DIQMTQSPSSLSASVGDRVTITCRASQGISTYLNWYQQKPGKAPKLLIYGATSLESGVPSRFSGSGSGTDFTLTISSLQPEDFATYYCQQGYSQGTFGQGTKVEIK
modifications: Synthetic Antibody
notes: also as scFv in CAR
Consider B2, for which the “target cell killing when MTX is added to active CAR T cells ("on" to "off")” value with MV4-11 cells was “requires two rounds of MTX to be fully inhibited”. In the experiment with human CD33, the “koff, kinetics toward antigen with 0 µM MTX” value was 0.0057 s⁻¹ and the “kon, kinetics toward antigen with 0 µM MTX” value came to 50000 M⁻¹ s⁻¹.
